For the series, the target named is TDP-43 RRMs (RRM1-RRM2) (UniProt Q13148). Briefly: EMSA (multiplexed). Conditions: 20 mM Tris-HCl pH 7.5, 150 mM KCl, 5 mM MgCl2, 10% glycerol, 30 min, room temperature, 2 nM each labeled RNA (mEMSA), 5.5% TBE gel (4% for competition). (In general: In EMSA bound probe runs differently from free probe, usually more slowly.)
Where [1] appears, read: 5 mM Mg2+, fluorophore-UTP incorporated during transcription.
The mark [2] stands for this setting: 5 mM Mg2+, fluorophore-UTP incorporated during transcription (labeled form).

UniProt Q13148, sequence (Q13148 101-269): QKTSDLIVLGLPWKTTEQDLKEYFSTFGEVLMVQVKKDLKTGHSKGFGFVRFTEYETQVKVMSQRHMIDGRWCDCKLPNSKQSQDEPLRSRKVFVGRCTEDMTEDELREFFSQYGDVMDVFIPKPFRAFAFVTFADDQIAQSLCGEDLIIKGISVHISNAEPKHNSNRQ

On to “AACACCAUGCUGGUUAUUUUGGCGGCUGUAGUUGUGGGGGGAUGUGUGUGUGCACGUGUGUGUGUGUGUGUGUGUGUGUGUGUGUGUGUGUGUUCUGUGACCUCCUGUCCCCAUGGUACGUCCCACCCUGUCCCCAGAUCCCCUAUUCCCUCCACAAUAACAGAAACACUCCCAGGGACUCUGGGGAGAGGCUGAGGACAAAUACCUGCUGUCACUCCAGAGGACAUUUUUUUUAGCAAUAAAAUUGAG [SLC1A5[2620-2869] 3'UTR]”, for which the dissociation constant (Kd) (in general, the equilibrium constant for the complex coming apart) under setting [1] came out at 0.082 µM. Turning to “AUCCCGCUGCUAUUAGAAUGCAUUGUGAAACGACUGGAGUAUGAUUAAAAGUUGUGUUCCCCAAUGCUUGGAGUAGUGAUUGUUGAAGGAAAAAAUCCAGCUGAGUGAUAAAGGCUGAGUGUUGAGGAAAUUUCUGCAGUUUUAAGCAGUCGUAUUUGUGAUUGAAGCUGAGUACAUUUUGCUGGUGUAUUUUUAGGUAAAAUGCUUUUUGUUCAUUUCUGGUGGUGGGAGGGGACUGAAGCCUUUAGUCUUUUCCAGAUGCAACCUUAAAAUCAGUGACAAGAAACAUUCCAAACAAGC [MALAT1[6638-6938]]”, where the note is “fluorophore-UTP incorporated during transcription”, the Kd came out at 0.127 µM. In turn, “GAUUGAUGGUGGUGCCGAGGCAUGAAAGGCUAGUAUGAGCGAGAAAAGGAGAGAGCGCGUGCAGAGACUUGGUGGUGCAUAAUGGAUAUUUUUUAACUUGGCGAGAUGUGUCUCUCAAUCCUGUGGCUUUGGUGAGAGAGUGUGCG [TARDBP[2140-2283] 3'UTR]” showed a Kd under setting [2] of 0.272 µM. The same measure, in the same setting: with “GCGAGGAGCCUUUCAUCCGAAGGCGGGACGAUGCCGGAUAAUCGGCAGCCGAGGAACCGGCAGCCGAGGAUCCGCUCCGGGAACGAGCCUCGUUCCGCGCCCGCCAUGGAACCGGAUGGUCGCGGUGCCUGGGCCCACAGUCGCGCCGCGCUCGACCGCCUGGAGAAGCUGCUGCGCUGCUCGCGUUGUACUAACAUUCUGAGAGAGCC [BARD1[86-310] negative control]” the figure was 1.79 µM. With “GUGGGCUUUUCCAUUGUCCCCCUGGCCUCCAGGCUCCUCCUCUGCCUCUCCAUGGAGUGGGUGGGGAGGUGGUGGGGGCCGGCGUCCCCUGCGUGUGUGUGUGUGUGUGUGUGUGUGUGUGGAUGUAUUGACCUGUGUUUCCCAAGACAGCAGGUGCCACGGCCCGCCCCGCCUGCCAGCCCGAAUUCCCGUUCUCCUGUGUCUACUAACAAGGACGGAUCCAGCU [CSNK1E[2054-2264] 3'UTR]”, under setting [1], the Kd is 0.101 µM. Under setting [1], “UGGCUAUCCUUUAAUGAUGCGUGUGGAAUGUGUGUGUGUGCUCAGGCAAUUAUUUUGCUAAGAAUGUGAAUUCAAGUGCAGCUCAAUACUAGCUUCAGUAUAAAAACUGUACAGAUUUUUGUAUAGCUGAUAAGAUUCUCUGUAGAGAAAAUACUUUUAAAAAAUGCAGGUUGUAGCUUUUUGAUGGGCUACUCAUACAGUUAGAUUUUACAGCUUCUGAUGUUGAAUGUUCCUAAAUAUUUAAUGGUUUUUUUAAUUUCUUGUGUAUGGUAGCACAGCAAAGCUU [HMGB2[739-1022] 3'UTR]” yielded a Kd of 0.148 µM.

(Values after PMC11871449.)
